The DeepSol protein solubility set

experiment: soluble on expression in E. coli; label from the status in PepcDB or PDB records

| Sequence | soluble on expression in E. coli |
| --- | --- |
| MKPTKARLRNHVITLKNSVEKEIRAKKTKAIRAHIESEWLKIDPEFEKLHRYFSSLRIRQNVKNELVDLLEENSLEIWSFYRDTDARDFETYKKGFLEKLKYNSIKGLAKVEAVYDQEIQEVRETYNAIIANVERVPAKQGVAYLEELGINVDVFKEEEAQLPMIAVDKSKLRLPSETADSK | not soluble |
| MSLHSTPAPVASPLPSALDEAARLAVLHGLCLLDSPPDPVFDTIAAMAARMLGTEIALVSLVDEHRQWFKARVGLEAPETPRKHAFCAHALRSDDVLVIPDALLDPRFCNNPLVLGAPHIRFYAGAPLKLRDGHTIGTLCVIGTSPRAGLDAEQRIQLEGLRDLAVLRVENLRSSTYRNGPTGLPNRARFSEDLDAVLLQRTADSAATAIAVDLCGSDYFRDMVKALGWDYADGYVALAYKRLISKLPAGTALYRLDTTTFAFMVTTADPLRLSALCSKISKGFVAPLEHQGIPHTAVASIGAVLLETSYGAADTLRSLTTSVDVAREHCLTWSLYEREGHHHHHH | soluble |
| ATPAAQASDDRYEVTQQRNPDAACLDCHKPDTEGMHGKHASVINPNNKLPVTCTNCHGQPSPQHREGVKDVMRFNEPMYKVGEQNSVCMSCHLPEQLQKAFWPHDVHVTKVACASCHSLHPQQDTMQTLSDKGRIKICVDCHSDQRTNPNFNPASVPLLKEQP | soluble |
| MGSDKIHHHHHHMLTSDPSESTAHLQRTISNLSARNAKLAELLKASRDKLSILQDQLEDLAAPPSTYGTFLEFSGGRETAEVFTAGRHMRLRISPDVEKAELVPGVQVRLGEASQVVEVCDISTTGQLATLVELLADNRGLICDHTGEERVVKLAAALTEGVDKLPKAGDTLLVDPRAGYAFEVIPKTEVSTLALEEVPDVTYADIGGLNSQIELIHDAVELPFTQPDLYRAYDLKPPKGVLLYGPPGCGKTLIAKAVANSLAQRIGAGNRSYFINVKGPELLNKYVGETERRIRLIFERARELAEEGRPVIVFFDEMESIFRTRGSGVSSDMETTVVPQLLTELDGVESLSNVIIIGATNREELIDPAILRPGRLDVKIRVERPDKQAARDVFARHLKQNIPTAEPIDSLINNAVDHLYADNPYVELSLIDGSTEILHYRDFVSGAMIANIVDRAKKCAIKDHIAGRHSGVASEHLIAAINAENHESEDLPNTSNPDDWSRIIGRHGLRVAHARVLGGQR | not soluble |
| MAATITDDIVATVLESIEEKSYEDEKEKAGMIKDEANQFFKDQVYDVAADLYSVAIEIHPTAVLYGNRAQAYLKKELYGSALEDADNAIAIDPSYVKGFYRRATANMALGRFKKALTDYQAVVKVCPNDKDARAKFDECSKIVRRQKFEAAISTDHDKKTVAETLDINAMAIEDSYDGPRLEDKITKEFVLQLIKTFKNQQKLHKKYAFKMLLEFYNYVKSLPTMVEITVPTGKKFTICGDVHGQFYDLCNIFEINGYPSETNPYLFNGDFVDRGSFSVETIFTMIGFKLLYPNHFFMSRGNHESDVMNKMYGFEGEVKAKYTQQMCDMFTETFCWLPLCHLINEKIFVCHGGLFKEDGVTLEDIRKTDRNRQPPDEGIMCDLLWSDPQPINGRSPSKRGVGCQFGPDVTSKWCETNGIEYVVRSHEVKPEGYEMHHNGQCFTVFSAPNYCDQMNNKGAFITITGDNLTPRFTPFDAVPHPKLPPMAYANSLFGFN | not soluble |
| MDKIYIHDMEFYGYHGVFPEENKLGQRFKVDLTVELDLKRAGESDDLEHSVNYGELFELCRKVVEDRTYKLVESIAENIATDILKQYESISRCTIKVIKPDPPIPGHYRAVAVEITRERP | not soluble |
| GPGSMLRRLGSTLFCSVTLANGTVLKGDLNPHNPSLLLKGITILPDGRVYSGSYDATSGFPLPGSQLEEDGDLYRGDFNTQWQREGRGEAWLADGTHYAGVFKNDEITEGIVRIPNGTTEVVFEGTLSDEAFVKGKLTQSDFVYEGEFSDNEPHGKGKLVFATGAVQEGTFFHGKLHGPDCKMKLDGGFVYVGEFLDGQIRRGTLYTPTYTYEGEFNEHGRAQGEGTQTYLINEPRLTFTGIWTNGALVRGVCMDEYGSAVDWQNNDELQAKVLGGATGKGSESVGLNSYCSARMKEAAQLHSDMQRSYAEDAEAVAQSTGRFPTKMDLGYEGSIAHENEAVMQAQQRQMQDIERSKEVLSDRARDFGPIASGSRGNIIGEIDENMARIQFRRQVGAEEVSAARVDEQFERFMKSFKKPSPLPGAPAQVAQKLNIDGNAPWKAFTPLK | soluble |
| SLEYNLTTKEVEMVNVTASWDEGIGELFEKVKQNDSERKMANGDDGLFFSNFSLHVTPVLKNISFKLEKGELLAIAGSTGSGKSSLLMMIMGELEPSDGKIKHSGRISYSPQVPWIMPGTIKDNIIFGLSYDEYRYTSVVNACQLEEDITVFPNKDKTVLGDGGITLSGGQRARISLARALYKDADLYLLDSPFSHLDVTTEKDIFESCLCKLMVNKTRILVTSKLEHLKKADKILLLHEGHCYFYGTFSELQGEKPDFSSQLLGSVHFDSFSAERRNSILTETFRRCSVSSGDGAGLGSEG | soluble |
| MYSPQTFFLQEVKGQKPDGLGGLIDDWGLFKEVSGYIDLVTGTDETTKQNAFVEESTHILIIPEFIEGITDNMRVVDQTNRYYDITYSDNPVGIKHHNEIYLKFEGVLSGEE | not soluble |
| MGSDKIHHHHHHMGKARRGLQRGNGVHRHEAVRMFISLREIAPQGGLGPPRQLAGRRIAHVLDQAFRVALEVSARCHAVRVAHRVKSFVCTQQSRFVMGRQRLASMAHLRQNPPMAKLYFNYSTMNAGKSTLLLQASYNYIERGMQTYLLTANFDDRAGMGRIGSRIGIEAEADTYTQSDDLFAKIDARLKAGPCACVLVDEAQWMTRDQVWQLARAVDDLGVPVMCYGLRVDFRGELFPGSAALLALADEMREVRTICHCGRKATMVIRVGEDGNALAEGAQIEVGGNDRYISLCRKHFREAVGDVPV | not soluble |
| MWKFATRLGLESVDTIAATNPREAIAAVAAGQADYACVAIENSVDGPVTPTFDALATIDGVRIFHELDLPIAFAIMQRTGAPLRRFATHPVAYQQVKTWLAANAPAAEFVPASSNAEAARMAKENIVDFAAAPARAAEVYGLDIIADGVADVTGARTRFVLVGHADT | not soluble |
| MDAEEKMGVELSSPSAIMEHARRLYMSKDYRSLESLFGRCLWKSYNLDLWMLYIEYVRKVSQKKFKLFEVYEFTLGQFENYWDSYGLFKEYIEELGKIEDEQTRIEKIRNGYMRALQTPMGSLSELWKDFENFELELNKITGKKIVGDTLPLFQSSFQRYQQIQPLIRGWSVKNAARLIDLEMENGMKLGGRPHESRMHFIHNYILDSFFYAEEVYFFYSEYLIGIGQKEKAKKVVERGIEMSDGMFLSLYYGLVMDEEAVYGDLKRKYSMGEAESAEKVFSKELDLLRINHLNYVLKKRGLELFRKLFIELGNEGVGPHVFIYCAFIEYYATGSRATPYNIFSSGLLKHPDSTLLKEEFFLFLLRIGDEENARALFKRLEKTSRMWDSMIEYEFMVGSMELFRELVDQKMDAIKADAILPPLPPREHNVQMEGILGRYHCFLDSFNFLDLKIRDNSRLLDEFMENLPKISQQNNVLSNLRVEKVISLLKSVQ | soluble |
| MEISTLPIYHTKTKMFGYYAYKSFSFLPEWKIDVTRDFDVTIGPKFSANLVFGVNNRNRSDYTQFVIDKDEIIVSASVGEEVDFNYRLRDNLKAYIGLEAQVGIGERIYTKSGLYDTGKKIEGSSENAFKPYTPYIIFNNTHIMYSGKVSAGLKIRDKYNIALYGGYGKGYFGIEFGQTF | not soluble |
| MLRHKEPGSGSGGGVYWVDSQQKRYVPVKGDHVIGIVTAKSGDIFKVDVGGSEPASLSYLSFEGATKRNRPNVQAISSRLLEHHHHHH | not soluble |
| MEHKTPKHIVAVAGYLTNEKNEVLLTKVHWRADTWELPGGQVEEGEALDQAVCREIKEETGLTVKPIGITGVYYNTSMHILAVVFKVAYISGEIKIQPEEIQEAKFVDLNEENIDEYITRPHMKSRTLDAMRATHFIPYETWEVQPYNLIGRL | not soluble |
| SMDMKQQNFCVVELLPSDPEYNTVASKFNQTCSHFRIEKIERIQNPDLWNSYQAKKKTMDAKNGQTMNEKQLFHGTDAGSVPHVNRNGFNRSYAGKNAVAYGKGTYFAVNANYSANDTYSRPDANGRKHVYYVRVLTGIYTHGNHSLIVPPSKNPQNPTDLYDTVTDNVHHPSLFVAFYDYQAYPEYLITFRK | soluble |
| MSLSRKWLNKVKWDDHGLVPVIVQEQGSNDVLMFAFMNREALQKTVETGEAVFWSRSRKRLWHKGEESGHIQQVHEIRLDCDEDVVLLRVTQVGGIACHTGRHACFFQKFEGTAEDGDWHTVEPVLKNPDDIYAGKPGHNHEEGHHHHHH | not soluble |
